Assay results as given in patent US20070224194A1, “Methods for Inhibiting Angiogenesis and/or Lymphangiogenesis” (LUDWIG INSTITUTE FOR CANCER RESEARCH, priority 2004, published 2007).

Legend:
[1] = molecular target: VEGFR-2 (as used in the biosensor analysis) (UniProt P35968); assay: SPR; conditions: ligand
[2] = molecular target: VEGFR-3 (as used in the biosensor analysis) (UniProt P35916); assay: SPR; conditions: ligand
[3] = molecular target: VEGFR-2 (as used in the biosensor analysis) (UniProt P35968); assay: SPR biosensor, 1:1 Langmuir model; reference VEGF-DSSTS.IISS on the same receptor
[4] = molecular target: VEGFR-3 (as used in the biosensor analysis) (UniProt P35916); assay: as above
[5] = molecular target: T1, VEGFR-2 (as used in the biosensor analysis) (UniProt P35968 20-764); assay: SPR
T1 chain: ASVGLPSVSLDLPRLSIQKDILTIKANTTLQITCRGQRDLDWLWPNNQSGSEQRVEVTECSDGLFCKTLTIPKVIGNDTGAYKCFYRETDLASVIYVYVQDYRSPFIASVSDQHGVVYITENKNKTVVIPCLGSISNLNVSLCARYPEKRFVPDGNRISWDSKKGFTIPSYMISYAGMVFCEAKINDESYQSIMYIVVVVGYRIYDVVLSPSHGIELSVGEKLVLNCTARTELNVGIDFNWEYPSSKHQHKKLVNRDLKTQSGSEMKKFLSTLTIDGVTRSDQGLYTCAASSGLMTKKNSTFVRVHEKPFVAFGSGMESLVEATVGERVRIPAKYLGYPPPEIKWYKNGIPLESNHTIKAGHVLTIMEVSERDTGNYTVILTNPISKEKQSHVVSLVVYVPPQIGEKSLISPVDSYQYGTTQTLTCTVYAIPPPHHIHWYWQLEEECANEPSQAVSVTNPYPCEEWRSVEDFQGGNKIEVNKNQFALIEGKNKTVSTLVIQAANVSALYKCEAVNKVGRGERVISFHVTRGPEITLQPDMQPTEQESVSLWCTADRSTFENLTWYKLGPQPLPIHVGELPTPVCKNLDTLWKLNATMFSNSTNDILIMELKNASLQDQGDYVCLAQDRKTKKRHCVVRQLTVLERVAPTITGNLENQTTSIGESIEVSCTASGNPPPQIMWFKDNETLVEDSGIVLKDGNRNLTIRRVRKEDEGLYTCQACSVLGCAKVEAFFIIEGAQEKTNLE

[6] = molecular target: T2, VEGFR-3 (as used in the biosensor analysis) (UniProt P35916 25-775); assay: SPR
T2 chain: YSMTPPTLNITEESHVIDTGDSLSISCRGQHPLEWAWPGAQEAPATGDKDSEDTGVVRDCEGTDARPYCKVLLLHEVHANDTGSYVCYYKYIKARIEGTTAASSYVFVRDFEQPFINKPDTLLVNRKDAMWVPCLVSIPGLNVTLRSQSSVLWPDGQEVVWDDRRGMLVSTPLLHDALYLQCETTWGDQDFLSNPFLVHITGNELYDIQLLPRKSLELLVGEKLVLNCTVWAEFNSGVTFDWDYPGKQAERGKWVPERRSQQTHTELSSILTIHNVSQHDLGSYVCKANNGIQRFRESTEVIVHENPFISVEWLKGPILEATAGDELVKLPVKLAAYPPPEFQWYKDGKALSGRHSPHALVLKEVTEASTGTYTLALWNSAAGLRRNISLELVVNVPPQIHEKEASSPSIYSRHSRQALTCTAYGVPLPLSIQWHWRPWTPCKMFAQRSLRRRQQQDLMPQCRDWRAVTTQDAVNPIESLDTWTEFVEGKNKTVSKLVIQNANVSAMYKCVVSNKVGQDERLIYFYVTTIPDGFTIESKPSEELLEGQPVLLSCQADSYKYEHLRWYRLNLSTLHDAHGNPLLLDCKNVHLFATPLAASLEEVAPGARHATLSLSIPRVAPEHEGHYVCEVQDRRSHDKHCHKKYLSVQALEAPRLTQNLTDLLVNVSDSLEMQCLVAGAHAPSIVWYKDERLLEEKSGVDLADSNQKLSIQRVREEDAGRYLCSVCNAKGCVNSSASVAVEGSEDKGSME

[7] = molecular target: VEGFR-2 (as used in the biosensor analysis) (UniProt P35968); assay: SPR biosensor, 1:1 Langmuir model; reference VEGF-DSSTS.IISS on the same receptor; the preparation held traces of processed forms
VEGFR-2 = VEGFR-2 (Homo sapiens, UniProt P35968); assay: Biosensor analysis (surface plasmon resonance) of VEGF-D ligands on VEGFR-2; type: binding; conditions: 1:1 Langmurian model
Chain of VEGFR-2 (P35968 20-1356): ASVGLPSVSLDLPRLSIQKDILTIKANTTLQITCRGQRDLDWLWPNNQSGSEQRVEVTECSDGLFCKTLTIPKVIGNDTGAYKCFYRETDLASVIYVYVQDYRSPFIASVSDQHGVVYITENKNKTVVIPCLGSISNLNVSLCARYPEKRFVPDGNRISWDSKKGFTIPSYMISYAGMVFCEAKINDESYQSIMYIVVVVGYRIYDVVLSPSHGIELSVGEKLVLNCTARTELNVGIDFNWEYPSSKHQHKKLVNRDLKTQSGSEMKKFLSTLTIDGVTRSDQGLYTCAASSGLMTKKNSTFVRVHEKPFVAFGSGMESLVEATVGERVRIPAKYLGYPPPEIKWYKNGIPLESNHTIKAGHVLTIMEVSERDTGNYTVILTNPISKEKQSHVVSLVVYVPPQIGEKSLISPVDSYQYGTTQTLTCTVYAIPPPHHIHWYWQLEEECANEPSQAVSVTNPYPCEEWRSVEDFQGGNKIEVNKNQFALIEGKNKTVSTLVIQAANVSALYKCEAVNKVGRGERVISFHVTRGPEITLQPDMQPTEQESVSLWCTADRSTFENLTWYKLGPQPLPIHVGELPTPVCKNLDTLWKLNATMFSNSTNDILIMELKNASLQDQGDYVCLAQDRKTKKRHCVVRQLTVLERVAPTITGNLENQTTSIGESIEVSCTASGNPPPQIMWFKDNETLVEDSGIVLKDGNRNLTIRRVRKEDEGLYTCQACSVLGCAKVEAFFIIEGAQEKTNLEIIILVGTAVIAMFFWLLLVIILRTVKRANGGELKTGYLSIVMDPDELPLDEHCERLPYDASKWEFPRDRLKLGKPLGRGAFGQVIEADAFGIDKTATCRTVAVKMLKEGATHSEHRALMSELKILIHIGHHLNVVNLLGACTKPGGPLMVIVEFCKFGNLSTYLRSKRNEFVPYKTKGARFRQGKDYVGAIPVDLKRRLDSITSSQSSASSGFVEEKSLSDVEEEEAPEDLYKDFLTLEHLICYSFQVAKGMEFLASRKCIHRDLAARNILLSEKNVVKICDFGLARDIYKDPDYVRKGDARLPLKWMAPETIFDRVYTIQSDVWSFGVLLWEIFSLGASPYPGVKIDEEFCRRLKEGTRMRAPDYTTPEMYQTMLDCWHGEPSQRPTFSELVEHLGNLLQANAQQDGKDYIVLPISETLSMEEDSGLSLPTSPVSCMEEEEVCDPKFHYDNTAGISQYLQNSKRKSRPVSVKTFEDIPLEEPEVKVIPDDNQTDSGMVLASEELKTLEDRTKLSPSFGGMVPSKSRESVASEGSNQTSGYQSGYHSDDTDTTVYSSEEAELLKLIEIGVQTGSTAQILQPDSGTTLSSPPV
Procedure: To determine the relative affinities of the ligands VEGF-DSSTS.IISS, VEGF-D-FULL-N-FLAG and mature VEGF-D (designated VEGF-DΔNΔC) for VEGFR-2 and VEGFR-3, the relative binding kinetics for these interactions was analyzed by biosensor analysis using surface plasmon resonance detection (Nice et al., Bioessays, 21:339-352, 1999). The preparations of VEGF-DSSTS.IISS and VEGF-DΔNΔC used for this analysis each consisted of one VEGF-D species devoid of other forms of VEGF-D but the preparation of VEGF-D-FULL-N-FLAG did contain traces of partially processed as well as full-length material, reflecting the capacity of wild-type full-length VEGF-D to be proteolytically processed in the 293EBNA cell cultures) from which these proteins were purified (see FIG. 10B). The binding constants for the interactions were obtained by analysis of the initial dissociation phase to obtain the kd, which was then used to constrain a global analysis of the association region of the curves, using regions of the curves where a 1:1 Langmurian model appeared to be operative.

furin = assay: Knockdown of furin protein by shRNA (co-transfection of shRNA and furin expression constructs); type: cell-based, human
Text: Short hairpin RNA (shRNA) primers targeting furin RNA were designed using an in-house primer design algorithm. These primer pairs form the shRNA structure that then results in functional siRNA targeting sequences 457-476 and 558-575 of open reading frame of human furin sequence (Genbank Accession No. NM_002569.2, SEQ ID NO: 21). The underlined sections are structural motifs for the formation of the small hairpin RNA structure and for the ligation of the annealed primers to the parental vector. In bold the 5′-3′ upper strand of the target sequence which is naturally a part of the primer sequence.
The above shRNA primers were generated to target the sequences 5′-GACGATGGCATCGAGAAGAA-3′ (SEQ ID NO: 19) and 5′-ACA CAC AGA TGA ATG ACA A-3′ (SEQ ID NO: 20). Primers were annealed by heating a mix of 60 pM of both primers in 50 μl annealing buffer (0.1 M potassium acetate, 2 mM magnesium acetate, 30 mM HEPES pH 7.4) at 94° C. for 4 min then 70° C. for 10 min and allowed to cool to room temperature. Annealing was verified in 3% low melting point agarose gel. The shRNA construct was then ligated into pMSCVpac mU6 which is a derivative of pMSCV (Clontech). The shRNAs were validated by assessing reduction of furin protein levels resulting from co-transfections of shRNA and furin expression constructs in 293EBNA cells or other cell lines stably overexpressing furin.

Molecule: mature VEGF-D (designated VEGF-DΔNΔC) (from UniProt O43915 93-201)
- Kd [1]: 8.7 nM
- Kd [2]: 44 nM

Molecule: mature VEGF-D (designated VEGF-DΔNΔC) (from UniProt O43915 93-201) (ligand)
- fold greater apparent affinity than VEGF-DSSTS.IISS [3]: 17000 fold
- fold greater affinity than VEGF-DSSTS.IISS [4]: 18 fold

B1: VEGF-D-FULL-N-FLAG (full-length VEGF-D tagged with FLAG at the N-terminus) (ligand)
chain: NEHGPVKRSSQSTLERSEQQIRAASSLEELLRITHSEDWKLWRCRLRLKSFTSMDSRSASHRSTRFAATFYDIETLKVIDEEWQRTQCSPRETCVEVASELGKSTNTFFKPPCVNVFRCGGCCNEESLICMNTSTSYISKQLFEISVPLTSVPELVPVKVANHTGCKCLPTAPRHPYSIIRRSIQIPEEDRCSHSKKLCPIDMLWDSNKCKCVLQEENPLAGTEDHSHLQEPALCGPHMMFDEDRCECVCKTPCPKDLIQHPKNCSCFECKESLETCCQKHKLFHPDTCSCEDRCPFHTRPCASGKTACAKHCRFPKEKRAAQGPHSRKNP
- Kd [5]: 1600 nM
- Kd [6]: 490 nM
- fold greater affinity than VEGF-DSSTS.IISS [7]: 94 fold

B2: VEGF-DSSTS.IISS (ligand)
chain: NEHGPVKRSSQSTLERSEQQIRAASSLEELLRITHSEDWKLWRCRLRLKSFTSMDSRSASHSSTSFAATFYDIETLKVIDEEWQRTQCSPRETCVEVASELGKSTNTFFKPPCVNVFRCGGCCNEESLICMNTSTSYISKQLFEISVPLTSVPELVPVKVANHTGCKCLPTAPRHPYSIISSSIQIPEEDRCSHSKKLCPIDMLWDSNKCKCVLQEENPLAGTEDHSHLQEPALCGPHMMFDEDRCECVCKTPCPKDLIQHPKNCSCFECKESLETCCQKHKLFHPDTCSCEDRCPFHTRPCASGKTACAKHCRFPKEKRAAQGPHSRKNP
- Kd [5]: 150000 nM
- Kd [6]: 790 nM

B3: VEGF-D-FULL-N-FLAG: full-length VEGF-D tagged with FLAG at the N-terminus; preparation contained traces of partially processed material (protein)
chain: NEHGPVKRSSQSTLERSEQQIRAASSLEELLRITHSEDWKLWRCRLRLKSFTSMDSRSASHRSTRFAATFYDIETLKVIDEEWQRTQCSPRETCVEVASELGKSTNTFFKPPCVNVFRCGGCCNEESLICMNTSTSYISKQLFEISVPLTSVPELVPVKVANHTGCKCLPTAPRHPYSIIRRSIQIPEEDRCSHSKKLCPIDMLWDSNKCKCVLQEENPLAGTEDHSHLQEPALCGPHMMFDEDRCECVCKTPCPKDLIQHPKNCSCFECKESLETCCQKHKLFHPDTCSCEDRCPFHTRPCASGKTACAKHCRFPKEKRAAQGPHSRKNP
modifications: left off: small tags and cut ends
notes: full-length VEGF-D tagged with FLAG at the N-terminus; preparation contained traces of partially processed material
- apparent affinity for VEGFR-2 relative to unprocessed mutant VEGF-DSSTS.IISS (VEGFR-2): ~94 fold

B4: First primer pair: shRNA primer pair (SEQ ID NO:15 and 16) targeting bases 457-476 of human furin (nucleic acid)
chain 1: GACGATGGCATCGAGAAGAATTCAAGAGATTCTTCTCGATGCCATCGTCTTTTTT
chain 2: AATTAAAAAAGACGATGGCATCGAGAAGAATCTCTTGAATTCTTCTCGATGCCATCGTC
- knockdown of furin protein expression in vitro (furin): almost complete knockdown

B5: Second shRNA pair: shRNA primer pair (SEQ ID NO:17 and 18) targeting bases 558-575 of human furin (nucleic acid)
chain 1: CACACAGATGAATGACAATTCAAGAGATTGTCATTCATCTGTGTGTTTTTT
chain 2: AATTAAAAAACACACAGATGAATGACAATCTCTTGAATTGTCATTCATCTGTGTG
- knockdown of protein expression in vitro (furin): 70-80%
